Assay results as given in patent publication US20220280618A1 (ADMINISTRATORS OF THE TULANE EDUCATIONAL FUND, published 2022).

B1: HuMAb 1.10C (anti-MET6) (antibody, V domains shown)
VH: EVQLVESGGGLVKPGGSLRLSCKASGFNFTNSWMSWVRQAPGKGLEWLGRIKSESDGGATRYAAPVTGRFSISRDDSRDMLFLQMNSLTTDDTAMYYCTTNKVTTNYWGQGTLVTVSS
VL: DIVMTQSPVTLAVSLGERATINCKSSQSLLYSSDNENYLTWYQQKPGQPPKLLIYWASVRESGIPDRFIGSGSVTDFTLTINNVQAEDVAVYYCQQFRYTPLTFGQGTTLEIK
notes: also called 1.100
B2: MET6 peptide (synthetic, from methyltetrahydropteroyltriglutamate homocysteine methyltransferase) (peptide)
peptide: PRIGGQRELKKITE
notes: also called MEM
B3: Fba peptide (synthetic, from fructose-bisphosphate aldolase) (peptide)
peptide: YGKDVKDLFDYAQE
B4: HuMAb 1.11D (anti-Fba) (antibody, V domains shown)
VH: EVQLVQSGGGLVQPGGSLRLSCSASGFTFRTYAMSWVRQAPGKGLQWVSVISRSGDTTYHTDSVKGRFTISRDNSRNALYLQLDSLRAEDTALYYCAKTGNMAVGDRRTNYSYYYMDVWGKGTTVTVSS
VL: DIVMTQSPSTLSASVGDRVTITCRASQSIKYWLAWYQQKPGKAPKLLIYKASNLESGVPSRFSGSGSGTEFTLTISSLRPDDFATYYCQQYNSYPLTFGGGTVEIK

Tests used:
[1] = target: T1, MET6-Biotin peptide (Candida albicans, not fully specified; C-terminal K-Biotin (PRIGGQRELKKITEPGGSGGSGK-Biotin)); experiment: BLI (BLITz), btn-Met6 peptide on streptavidin tip, IgG in solution; BLITz run of Dec. 3, 2018
T1 construct: also called btn-Met6 peptide; MFT6-Biotin
T1 peptide: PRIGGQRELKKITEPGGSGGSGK

[2] = target: T2, full-length His-tagged recombinant Met6 protein from C. albicans (Candida albicans, UniProt P82610 2-767); experiment: bio-layer interferometry (BLITz), His-Met6 (C. albicans) from bacterial supernatant loaded on an anti-penta-His sensor, antibody in the association step
T2 construct: mature; also called His-Met6; whole length recombinant MET6; not shown: six-histidine (6-His) amino terminal tag from vector pRSET A
T2 sequence (looked up): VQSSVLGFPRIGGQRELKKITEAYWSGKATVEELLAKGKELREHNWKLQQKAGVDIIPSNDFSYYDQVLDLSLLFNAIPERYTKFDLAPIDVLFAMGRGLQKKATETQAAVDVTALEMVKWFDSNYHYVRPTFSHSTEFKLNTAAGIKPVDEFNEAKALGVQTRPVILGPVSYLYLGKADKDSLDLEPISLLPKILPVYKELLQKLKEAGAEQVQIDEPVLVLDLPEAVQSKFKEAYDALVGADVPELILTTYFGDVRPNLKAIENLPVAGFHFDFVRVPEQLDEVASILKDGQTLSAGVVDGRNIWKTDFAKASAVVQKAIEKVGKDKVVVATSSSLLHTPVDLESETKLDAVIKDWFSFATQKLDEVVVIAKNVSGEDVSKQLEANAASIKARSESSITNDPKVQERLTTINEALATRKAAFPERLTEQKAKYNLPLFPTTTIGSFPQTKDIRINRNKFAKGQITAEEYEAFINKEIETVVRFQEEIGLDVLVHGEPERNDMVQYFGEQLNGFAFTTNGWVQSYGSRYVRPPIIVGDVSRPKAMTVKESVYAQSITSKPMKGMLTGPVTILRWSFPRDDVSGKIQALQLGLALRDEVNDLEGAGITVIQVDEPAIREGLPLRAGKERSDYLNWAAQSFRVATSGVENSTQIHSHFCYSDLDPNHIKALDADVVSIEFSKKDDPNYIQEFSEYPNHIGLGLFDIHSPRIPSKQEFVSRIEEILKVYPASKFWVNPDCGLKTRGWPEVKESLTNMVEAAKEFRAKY

[3] = target: T1, MET6-Biotin peptide; experiment: BLI (Octet HTX), kinetic 1:1 fit, biotinylated peptide on streptavidin sensor, IgG in solution; kinetic measurement (FIG. 4)
[4] = target: T1, MET6-Biotin peptide; experiment: BLI (BLITz), btn-Met6 peptide on streptavidin tip, IgG in solution
Protocol: (§1) Binding experiments were performed using a FortèBio BLITz Bi-layer interferometer at 25° C. […] Loaded sensors were dipped into serial dilutions of the cognate IgG.

[5] = target: T3, full-length His-tagged recombinant Fba protein from C. albicans (Candida albicans, UniProt Q9URB4 2-359); experiment: bio-layer interferometry (BLITz), His-Fba (C. albicans) loaded on an anti-penta-His sensor, antibody in the association step
T3 construct: mature; also called His-Fba; whole length recombinant Fba (C. albicans); not shown: six-histidine (6-His) amino terminal tag from vector pRSET A
T3 sequence (looked up): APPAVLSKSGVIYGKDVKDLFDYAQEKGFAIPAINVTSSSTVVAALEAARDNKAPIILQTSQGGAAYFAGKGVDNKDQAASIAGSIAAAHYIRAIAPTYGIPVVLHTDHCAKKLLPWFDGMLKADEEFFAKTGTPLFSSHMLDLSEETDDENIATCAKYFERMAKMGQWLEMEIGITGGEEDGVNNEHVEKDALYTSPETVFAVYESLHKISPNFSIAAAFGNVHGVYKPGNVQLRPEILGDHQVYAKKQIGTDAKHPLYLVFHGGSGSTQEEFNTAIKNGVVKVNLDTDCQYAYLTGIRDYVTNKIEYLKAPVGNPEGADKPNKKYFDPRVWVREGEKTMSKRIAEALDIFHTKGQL

[6] = target: B2; experiment: ELISA on peptide-coated wells, HRP goat anti-human IgG, absorbance at 450 nm
[7] = target: B3; experiment: as above
[8] = target: T1, MET6-Biotin peptide; experiment: BLI (Octet HTX), steady-state analysis, biotinylated peptide on streptavidin sensor, IgG in solution; steady-state measurement (FIG. 5)
[9] = target: T1, MET6-Biotin peptide; experiment: bio-layer interferometry (Octet), steady state analysis, met6-btn on streptavidin sensors
[10] = target: T1, MET6-Biotin peptide; experiment: bio-layer interferometry (Octet), met6-btn loaded on streptavidin sensors, kinetic 1:1 fit
[11] = target: T1, MET6-Biotin peptide; experiment: bio-layer interferometry (Octet), met6-btn loaded on streptavidin sensors, kinetic 1:1 fit; column head kdis(1/s)
[12] = target: B1; experiment: competition ELISA: 1.10C mixed with free MET6 peptide and added to MET6 peptide-coated wells; the competitor is the coated MET6 peptide
[13] = target: B4; experiment: competition ELISA: 1.11D mixed with free Fba peptide and added to Fba peptide-coated wells; the competitor is the coated Fba peptide
[14] = target: T4, Fba-Biotin peptide (Candida albicans, not fully specified; C-terminal K-Biotin (YGKDVKDLFDYAQEGGSGGSGK-Biotin)); experiment: BLI (Octet HTX), kinetic 1:1 fit, biotinylated peptide on streptavidin sensor, IgG in solution; kinetic measurement (FIG. 4)
T4 construct: also called btn-Fba peptide
T4 peptide: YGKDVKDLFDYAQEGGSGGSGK

[15] = target: T4, Fba-Biotin peptide; experiment: bio-layer interferometry (Octet), Fba-btn at 10 ng/ml loaded on streptavidin sensors, kinetic 1:1 fit
[16] = target: T4, Fba-Biotin peptide; experiment: BLI (Octet HTX), steady-state analysis, biotinylated peptide on streptavidin sensor, IgG in solution; steady-state measurement (FIG. 5)
[17] = target: T4, Fba-Biotin peptide; experiment: bio-layer interferometry (Octet), Fba-btn at 10 ng/ml loaded on streptavidin sensors, kinetic 1:1 fit; column head kdis(1/s)
[18] = target: T4, Fba-Biotin peptide; experiment: BLI (BLITz), btn-Fba peptide on streptavidin tip, IgG in solution
Protocol: as §1

[19] = target: T4, Fba-Biotin peptide; experiment: bio-layer interferometry (Octet), steady state analysis, Fba-btn on streptavidin sensors

B1
Kd [1]: 180 nM
binding result [2]: binds
Kd [3]: ~180 nM
koff [4]: 0.0055 s⁻¹
kon [4]: 31000 M⁻¹ s⁻¹
binding result [5]: no binding
binding result [6]: binds
binding result [7]: no binding
Kd [8]: ~310 nM
Kd [9]: 310 nM
Kd [10]: 179 nM
kon [10]: 69500 M⁻¹ s⁻¹
koff [11]: 0.0124 s⁻¹

B2
IC50 (read off the curve) [12]: ~2 µg/mL

B3
IC50 (read off the curve) [13]: ~4 µg/mL

B4
Kd [14]: ~58 nM
Kd [15]: 58.5 nM
kon [15]: 111000 M⁻¹ s⁻¹
Kd [16]: ~77 nM
koff [17]: 0.00646 s⁻¹
Kd [18]: 19.8 nM
koff [18]: 0.00073 s⁻¹
kon [18]: 38000 M⁻¹ s⁻¹
Kd [19]: 77 nM

B5: HuMAb 1.B10 (anti-Met6) (antibody, V domains shown)
VH: EVQLVQSGGGLVKPGGSLRLSCAASGFIFSNAWMNWVRQAPGKGLEWVGRIKRESDSGTTDYGAAVKGRFTISRDDSKYTLYLQMNSLKTDDTAVYYCTTGWADYWGQGTLVTVSS
VL: LIQPPSVSVSPGQTARITCSGDALPNKYAYWYQQKPGQAPSVVMFRDNERPSGIPERFSGSSSGTTVTLTISGVQAEDESDFYCQSTDSNGAWVFGGGTKLTVL
Kd [4]: 31 nM
koff [4]: 0.0064 s⁻¹
kon [4]: 210000 M⁻¹ s⁻¹

B6: HuMAb 6.6K (anti-Met6) (antibody, V domains shown)
VH: QVQLVESGGGVVQPGRSLRLSCAASGFNFISYGMHWVRQAPGKGLEWVALISYDGSNKYYADSVKGRFTISRDNSKNTLYLQMNSLRAEDTAVYYCATEAYVETAMVPQYWGQGTLVTVSS
VL: SYELTQPPSVSVSPGQTARITCSGDALPKEYAYWYQQKSGQAPVVVIYEDSKRPSGIPERFSGSSSGTMATLTISGAQVEDEADYHCYSTDSSGNPVFGGGTKLTVL
Kd [4]: 160 nM
koff [4]: 0.012 s⁻¹
kon [4]: 75000 M⁻¹ s⁻¹

B7: HuMAb 6.11C (anti-Fba) (antibody, V domains shown)
VH: QVQLVQSGAEVKKPGASVQVSCRTSGYTFINYFMHWVRQAPGQGLEWMGIINPNGGKTRYAQKFQGRLTVTRDTSTNTVYVELSNLRYEDTGLYFCARDPEGEVGFDYWGQGTQVTVSS
VL: SHELTQPPSVSVSPGQTARITCSGDALSKQYAYWYQQKPGQAPVVVIYKDNERPSGIPERFSGSSSGTTVTLTITGVQAEDEADYYCQSTDTSRAYYVFGTGTKVTVL
Kd [18]: 120 nM
koff [18]: 0.06 s⁻¹
kon [18]: 490000 M⁻¹ s⁻¹
